Laboratory results from patent US20240270821A1, “GIP/GLP1/GCG TRI-RECEPTOR AGONISTS AND USES THEREOF” (priority 2023, published 2024).
Non-standard residues stand in square brackets, D forms with d. No end group written: not given here. αMePhe(2-F) = C[C@](N)(Cc1ccccc1F)C(=O)O; Aib = CC(C)(N)C(=O)O

T1: human GIP receptor (human) (UniProt P48546)
T1 sequence (looked up): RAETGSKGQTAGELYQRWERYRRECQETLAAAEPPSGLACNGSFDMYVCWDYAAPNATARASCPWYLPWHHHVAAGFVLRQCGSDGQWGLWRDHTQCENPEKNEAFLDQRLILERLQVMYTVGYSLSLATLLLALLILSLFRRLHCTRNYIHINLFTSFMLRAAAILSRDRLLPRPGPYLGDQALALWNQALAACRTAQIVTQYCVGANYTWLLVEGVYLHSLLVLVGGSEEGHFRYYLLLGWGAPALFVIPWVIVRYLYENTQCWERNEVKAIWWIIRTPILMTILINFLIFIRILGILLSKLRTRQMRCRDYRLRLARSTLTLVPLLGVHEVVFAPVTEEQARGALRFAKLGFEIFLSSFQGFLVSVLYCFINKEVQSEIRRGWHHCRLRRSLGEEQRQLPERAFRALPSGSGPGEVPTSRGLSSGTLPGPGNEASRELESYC


Legend:
Assay in all cases: cell-based or functional assay
hGLP-1R = hGLP-1R (Homo sapiens, UniProt P43220)
[1] = molecular target: T1, human GIP receptor (human)
[2] = molecular target: human glucagon receptor (human) (UniProt P47871)
Sequence of human glucagon receptor (human) (P47871 26-477): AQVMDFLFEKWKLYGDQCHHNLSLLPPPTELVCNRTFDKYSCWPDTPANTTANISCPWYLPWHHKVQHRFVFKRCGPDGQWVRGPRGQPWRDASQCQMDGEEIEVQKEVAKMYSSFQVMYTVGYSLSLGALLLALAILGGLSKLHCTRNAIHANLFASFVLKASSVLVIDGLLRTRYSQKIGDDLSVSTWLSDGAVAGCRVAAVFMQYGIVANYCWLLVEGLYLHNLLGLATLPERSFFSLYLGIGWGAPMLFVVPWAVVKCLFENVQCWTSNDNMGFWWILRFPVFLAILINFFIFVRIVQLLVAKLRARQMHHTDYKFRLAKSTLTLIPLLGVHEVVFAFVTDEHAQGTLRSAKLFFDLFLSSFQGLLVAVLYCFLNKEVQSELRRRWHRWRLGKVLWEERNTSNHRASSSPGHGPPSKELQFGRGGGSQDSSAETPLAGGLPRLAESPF

Sequence of hGLP-1R (P43220 24-463): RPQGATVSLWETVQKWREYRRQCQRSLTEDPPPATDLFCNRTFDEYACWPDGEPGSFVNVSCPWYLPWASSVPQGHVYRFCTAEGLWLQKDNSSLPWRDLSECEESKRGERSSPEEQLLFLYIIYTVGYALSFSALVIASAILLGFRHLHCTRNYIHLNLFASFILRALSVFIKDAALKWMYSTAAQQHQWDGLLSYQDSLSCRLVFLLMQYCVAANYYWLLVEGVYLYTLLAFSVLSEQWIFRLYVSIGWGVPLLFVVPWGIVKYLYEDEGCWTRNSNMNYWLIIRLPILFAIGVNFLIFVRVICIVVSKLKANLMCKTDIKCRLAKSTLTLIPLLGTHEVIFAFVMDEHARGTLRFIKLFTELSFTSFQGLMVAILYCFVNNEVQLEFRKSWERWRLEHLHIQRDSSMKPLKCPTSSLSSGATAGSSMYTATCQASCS

Row | Binder | Relative cAMP EC50 (hGLP-1R) [nM] | cAMP Rel EC50, nM (1% HSA) (hGLP-1R) [nM] | Relative cAMP EC50 [1] [nM] | cAMP Rel EC50, nM (1% HSA) [1] [nM] | Relative cAMP EC50 [2] [nM] | cAMP Rel EC50, nM (1% HSA) [2] [nM] | cAMP Rel EC50 (in the presence of 1% HSA) (hGLP-1R) [nM] | cAMP Rel EC50 (in the presence of 1% HSA) [1] [nM] | cAMP Rel EC50 (in the presence of 1% HSA) [2] [nM]
1 | YXQGTXTSDYXILLDKKAQXAFIEYLEEGGPSSGAPPPS (synthetic construct; SITE 2: note = 2-Aminoisobutyric Acid; SITE 6: note = alpha-methyl-L-phenylalanine; SITE 11: note = alpha-methyl-L-serine; SITE 17: note = Lysine is chemically modified through conjugation of the epsilon-amino group of the Lysine side chain with (2-[2-(2-Amino-ethoxy)-ethoxy]-ac)) [Example 393] | 0.211 | 29.6 | 0.0458 | 12.4 | 0.947 | 151 | – | – | –
2 | YXQGTXTSDYSIXLDKKAQXAFIEYLEEGGPSSGAPPPE (synthetic construct; SITE 2: note = 2-Aminoisobutyric Acid; SITE 6: note = alpha-methyl-L-phenylalanine; SITE 13: note = alpha-methyl-leucine; SITE 17: note = Lysine is chemically modified through conjugation of the epsilon-amino group of the Lysine side chain with (2-[2-(2-Amino-ethoxy)-ethoxy]-ace)) [Example 396] | 0.293 | 38.2 | 0.024 | 9.5 | 4.99 | 468 | – | – | –
3 | YXQGTXTSDYSILLDKKAQXAFIEYLEEGGPSSGAPPPS (synthetic construct; SITE 2: note = 2-Aminoisobutyric Acid; SITE 6: note = alpha-methyl-2-fluoro-L-phenylalanine; SITE 17: note = Lysine is chemically modified through conjugation of the epsilon-amino group of the Lysine side chain with (gamma-Glu)2-CO-(CH2)16-CO2H; SITE 20: note = 2-Aminoisobutyric) [Example 406] | 0.208 | 27.8 | 0.0233 | 10.5 | 1.23 | 254 | – | – | –
4 | YXQGTXTSDYSIXLDKKAQXAFIEYLEEGGPSSGAPPPE (synthetic construct; SITE 2: note = 2-Aminoisobutyric Acid; SITE 6: note = alpha-methyl-2-fluoro-L-phenylalanine; SITE 13: note = alpha-methyl-leucine; SITE 17: note = Lysine is chemically modified through conjugation of the epsilon-amino group of the Lysine side chain with (2-[2-(2-Amino-ethoxy)-et)) [Example 400] | 0.253 | 29.1 | 0.0158 | 3.86 | 2.53 | 265 | – | – | –
5 | YXQGTXTSDYSIXLDXKAQXAFIEYLEEGGPSSGAPPPE (not fully specified; synthetic construct; SITE 2: note = 2-Aminoisobutyric Acid; SITE 6: note = alpha-methyl-L-phenylalanine; SITE 13: note = alpha-methyl-leucine; SITE 16: note = L-ornithine; SITE 17: note = Lysine is chemically modified through conjugation of the epsilon-amino group of the Lysine side chain with (2-[2)) [Example 397] | 0.2 | 34.9 | 0.0247 | 10.1 | 5.22 | 1110 | – | – | –
6 | YXQGTXTSDYSILLDKKAQXAFIEYLEEGGPSSGAPPPE (synthetic construct; SITE 2: note = 2-Aminoisobutyric Acid; SITE 6: note = alpha-methyl-2-fluoro-L-phenylalanine; SITE 17: note = Lysine is chemically modified through conjugation of the epsilon-amino group of the Lysine side chain with (2-[2-(2-Amino-ethoxy)-ethoxy]-acetyl)-(gamma-Glu)-CO-(CH2) 16-) [Example 408] | 0.253 | 37.9 | 0.0329 | 15.3 | 1.93 | 472 | – | – | –
7 | YXQGTXTSDXSILLDKKAQXAFIEYLEEGGPSSGAPPPS (not fully specified; synthetic construct; SITE 2: note = 2-Aminoisobutyric Acid; SITE 6: note = alpha-methyl-2-fluoro-L-phenylalanine; SITE 10: note = 3-(4-Pyridyl)-L-alanine; SITE 17: note = Lysine is chemically modified through conjugation of the epsilon-amino group of the Lysine side chain with (gamma-Glu)2-CO-(CH2)1) [Example 413] | 0.564 | 41.4 | 0.0881 | 23.5 | 6.3 | 629 | – | – | –
8 | YXQGTXTSDYSIXLDKKAQXAFIEYLEEGGPSSGAPPPS (synthetic construct; SITE 2: note = 2-Aminoisobutyric Acid; SITE 6: note = alpha-methyl-L-phenylalanine; SITE 13: note = alpha-methyl-leucine; SITE 17: note = Lysine is chemically modified through conjugation of the epsilon-amino group of the Lysine side chain with (2-[2-(2-Amino-ethoxy)-ethoxy]-ace)) [Example 394] | – | 33.2 | – | 7.22 | – | 1090 | – | – | –
9 | YXQGTXTSDYSSLLDKKAQXAFIEYLEEGGPSSGAPPPS (synthetic construct; SITE 2: note = 2-Aminoisobutyric Acid; SITE 6: note = alpha-methyl-2-fluoro-L-phenylalanine; SITE 17: note = Lysine is chemically modified through conjugation of the epsilon-amino group of the Lysine side chain with (2-[2-(2-Amino-ethoxy)-ethoxy]-acetyl)-(gamma-Glu)-CO-(CH2) 16-) [Example 409] | 0.484 | 41.7 | 0.363 | 66.6 | 7.92 | 1190 | – | – | –
10 | YXQGTFTSDFSKXLDKKAQXAFIEYLLEGGPSSGEPPPTEG (synthetic construct; SITE 2: note = 2-Aminoisobutyric Acid; SITE 13: note = alpha-methyl-leucine; SITE 17: note = Lysine is chemically modified through conjugation of the epsilon-amino group of the Lysine side chain with (2-[2-(2-Amino-ethoxy)-ethoxy]-acetyl)-(gamma-Glu)-CO-(CH2) 18-CO2H; SITE 20: n) [Example 36] | 3.57 | – | 0.482 | – | 4.32 | – | 1360 | 170 | 1330
11 | YXQGTFTSDFSKXLDKKAQXAFIEYLAAGGPSSGEPPPSGE (synthetic construct; SITE 2: note = 2-Aminoisobutyric Acid; SITE 13: note = alpha-methyl-leucine; SITE 17: note = Lysine is chemically modified through conjugation of the epsilon-amino group of the Lysine side chain with (epsilon-K)2-(gamma-Glu)-CO-(CH2)18-CO2H; SITE 20: note = 2-Aminoisobutyric Aci) [Example 405] | 1.48 | 285 | 0.28 | 32.1 | 15.5 | 2530 | – | – | –
12 | Y[Aib]QGT[αMePhe(2-F)]TSDYSILLDAKAFIEYLEEGGPSSGAPPPSEG-NH2 (not fully specified (residue 17)) [Example 410] | 0.354 | 84.4 | 0.0708 | 49.3 | 9.94 | 1950 | – | – | –
13 | YXQGTXTSDYSIXLDKKAQXAFIEYLEEGGPSSGAPPPSEG (synthetic construct; SITE 2: note = 2-Aminoisobutyric Acid; SITE 6: note = alpha-methyl-L-phenylalanine; SITE 13: note = alpha-methyl-leucine; SITE 17: note = Lysine is chemically modified through conjugation of the epsilon-amino group of the Lysine side chain with (2-[2-(2-Amino-ethoxy)-ethoxy]-ace)) [Example 395] | 0.349 | 34.7 | 0.0248 | 6.69 | 5.55 | 1190 | – | – | –
14 | YXQGTXTSDYSIXLDXKAQXAFIEYLLEGGPSSGAPPPSEG (synthetic construct; SITE 2: note = 2-Aminoisobutyric Acid; SITE 6: note = alpha-methyl-2-fluoro-L-phenylalanine; SITE 13: note = alpha-methyl-leucine; SITE 16: note = L-ornithine; SITE 17: note = Lysine is chemically modified through conjugation of the epsilon-amino group of the Lysine side chain w) [Example 404] | 0.217 | 32.2 | 0.0102 | 2.03 | 4.1 | 735 | – | – | –
15 | YXQGTXTSDYSILLDKKAQXAFIEXLEEGGPSSGAPPPSEG (synthetic construct; SITE 2: note = 2-Aminoisobutyric Acid; SITE 6: note = alpha-methyl-2-fluoro-L-phenylalanine; SITE 17: note = Lysine is chemically modified through conjugation of the epsilon-amino group of the Lysine side chain with (2-[2-(2-Amino-ethoxy)-ethoxy]-acetyl)-(gamma-Glu)-CO-(CH2) 16-) [Example 411] | 0.709 | 82.1 | 0.058 | 23.8 | 3.94 | 1170 | – | – | –
16 | YXQGTXTSDYSILLDKKAQXAFIEYLEEGGPSSGAPPPEEG (synthetic construct; SITE 2: note = 2-Aminoisobutyric Acid; SITE 6: note = alpha-methyl-2-fluoro-L-phenylalanine; SITE 17: note = Lysine is chemically modified through conjugation of the epsilon-amino group of the Lysine side chain with (2-[2-(2-Amino-ethoxy)-ethoxy]-acetyl)-(gamma-Glu)-CO-(CH2) 16-) [Example 399] | 0.302 | 42.8 | 0.0413 | 19.6 | 1.51 | 560 | – | – | –
17 | YXQGTXTSDYSILLDKKAQXAFIEFLEEGGPSSGAPPPSEG (not fully specified; synthetic construct; SITE 2: note = 2-Aminoisobutyric Acid; SITE 6: note = alpha-methyl-2-fluoro-L-phenylalanine; SITE 17: note = Lysine is chemically modified through conjugation of the epsilon-amino group of the Lysine side chain with (2-[2-(2-Amino-ethoxy)-ethoxy]-acetyl)-(gamma-Glu)-CO-(CH2) 16-) [Example 412] | 0.282 | 46 | 0.0351 | 12.5 | 2.36 | 467 | – | – | –
18 | YXQGTXTSDYSILLDKKAQXAFIEYLEEGGPSSGAPPPSEG (not fully specified; synthetic construct; SITE 2: note = 2-Aminoisobutyric Acid; SITE 6: note = alpha-methyl-2-fluoro-L-phenylalanine; SITE 17: note = Lysine is chemically modified through conjugation of the epsilon-amino group of the Lysine side chain with (2-[2-(2-Amino-ethoxy)-ethoxy]-acetyl)-(gamma-Glu)-CO-(CH2) 16-) [Example 398] | 0.186 | 42.2 | 0.0318 | 12.4 | 2.16 | 375 | – | – | –
19 | YXQGTXTSDYXIXLDXKAQXXFIEXLEEGGPSSGEPPPE (synthetic construct; SITE 2: note = 2-Aminoisobutyric Acid; SITE 6: note = alpha-methyl-2-fluoro-L-phenylalanine; SITE 11: note = alpha-methyl-L-serine; SITE 13: note = alpha-methyl-leucine; SITE 16: note = L-ornithine; SITE 17: note = Lysine is chemically modified through conjugation of the epsilon) [Example 402] | 0.725 | 86.6 | 0.123 | 44.9 | 5.66 | 1030 | – | – | –
20 | YXQGTXTSDXXIXLDXKAQXXFIEXLIEGGPSSGEPPPSEG (synthetic construct; SITE 2: note = 2-Aminoisobutyric Acid; SITE 6: note = alpha-methyl-2-fluoro-L-phenylalanine; SITE 10: note = 3-(4-Pyridyl)-L-alanine; SITE 11: note = alpha-methyl-L-serine; SITE 13: note = alpha-methyl-leucine; SITE 16: note = L-ornithine; SITE 17: note = Lysine is chemically mo) [Example 401] | 0.213 | 12 | 0.0183 | 1.71 | 1.99 | 111 | – | – | –
21 | YXQGTXTSDYXIXLDXKAQXXFIEXLEEGGPSSGEPPPEEG (synthetic construct; SITE 2: note = 2-Aminoisobutyric Acid; SITE 6: note = alpha-methyl-2-fluoro-L-phenylalanine; SITE 11: note = alpha-methyl-L-serine; SITE 13: note = alpha-methyl-leucine; SITE 16: note = L-ornithine; SITE 17: note = Lysine is chemically modified through conjugation of the epsilon) [Example 403] | 0.396 | 70 | 0.0827 | 36.9 | 1.59 | 527 | – | – | –
